Starred links: 1 amine or outer side, 2 acyl side, 3 side chain; linkers in the order of their positions; H or OH if unused. Non-standard residues stand in square brackets, D forms with d. No end group written: not given here. *: point of attachment. εLys = N[C@@H](CCCCN[*:1])C(=O)[*:2]; Palmitoyl = CCCCCCCCCCCCCCCC(=O)*; Aib = CC(C)(N)C(=O)O
Biological target: Glucagon-like peptide-1 receptor (GLP1R)
Experiment: cell-based or functional assay

Point of comparison: HAEGTFTSDVSSYLEGQAAEFIVWLVKGRGKKGGPPPS[εLys](Palmitoyl) (not fully specified) [HS-20005], “EC50 (nM), cAMP-response-element luciferase reporter in HEK293 cells with GLP1R” value 0.000236 nM. Against it:
- HAEGTFTSDVSSYLEEQAAEFIVWLVKGRGKKGGPPPS[εLys](Palmitoyl) (not fully specified) [HS-20007] — 2.3-fold higher, 0.000549 nM
- H[Aib]EGTFTSDVSSYLEEEAAKEFIAWLVRGGPSSGAPPPSK (not fully specified (residue 40); ends and bridges not checked) [HS-20004] — 1.6-fold higher, 0.000373 nM

Point of comparison: HAEGTFTSDVSSYLEGQAAEFIVWLVKGRGKKGGPPPS[εLys](Palmitoyl) (not fully specified) [HS-20005], “Maximum reaction rate (%)” value 89.1%. Against it:
- HAEGTFTSDVSSYLEEQAAEFIVWLVKGRGKKGGPPPS[εLys](Palmitoyl) (not fully specified) [HS-20007] — lower, 87%
- H[Aib]EGTFTSDVSSYLEEEAAKEFIAWLVRGGPSSGAPPPSK (not fully specified (residue 40); ends and bridges not checked) [HS-20004] — higher, 90.8%

From patent US20120129768A1 (JIANGSU HANSOH PHARMACEUTICAL GROUP, published 2012)
